# Test results: IntAct's records for PubMed 16600184
# B1: Phospholipid-transporting ATPase accessory subunit LEM3 (Saccharomyces cerevisiae), P42838 (parent)
# chain: MVNFDLGQVGEVFRRKDKGAIVSGDNPEEEEDVDASEFEEDEVKPVRTKNRRPKEDAFTQQRLAAINPVLTPRTVLPLYLLIAVVFVIVGGCILAQNSKVDEVTIYYQDCMTNATSSWSDIPSEHWQFVFHKYKTYNTAPQWRFVDDESDDFTKQRGTCQIRFTTPSDMKNNVYLNYVLEKFAANHRRYVLSFSEDQIRGEDASYETVHDATGINCKPLSKNADGKIYYPCGLIANSMFNDTFPLQLTNVGDTSNNYSLTNKGINWESDKKRYKKTKYNYTQIAPPPYWEKMYPDGYNETNIPDIQDWEEFQNWMRPGAFDKITKLIRINKNDTLPAGEYQLDIGLHWPVLEFNGKKGIYLTHGSHLGGRNPFLGIVYLIGGCICAAMALILLTFWLFGGRKIADASSLSWNMK
# Variants of: B1
# Conditions: with atc5_yeast DNF1, P32660
# atc5_yeast DNF1, P32660, sequence (P32660 whole entry): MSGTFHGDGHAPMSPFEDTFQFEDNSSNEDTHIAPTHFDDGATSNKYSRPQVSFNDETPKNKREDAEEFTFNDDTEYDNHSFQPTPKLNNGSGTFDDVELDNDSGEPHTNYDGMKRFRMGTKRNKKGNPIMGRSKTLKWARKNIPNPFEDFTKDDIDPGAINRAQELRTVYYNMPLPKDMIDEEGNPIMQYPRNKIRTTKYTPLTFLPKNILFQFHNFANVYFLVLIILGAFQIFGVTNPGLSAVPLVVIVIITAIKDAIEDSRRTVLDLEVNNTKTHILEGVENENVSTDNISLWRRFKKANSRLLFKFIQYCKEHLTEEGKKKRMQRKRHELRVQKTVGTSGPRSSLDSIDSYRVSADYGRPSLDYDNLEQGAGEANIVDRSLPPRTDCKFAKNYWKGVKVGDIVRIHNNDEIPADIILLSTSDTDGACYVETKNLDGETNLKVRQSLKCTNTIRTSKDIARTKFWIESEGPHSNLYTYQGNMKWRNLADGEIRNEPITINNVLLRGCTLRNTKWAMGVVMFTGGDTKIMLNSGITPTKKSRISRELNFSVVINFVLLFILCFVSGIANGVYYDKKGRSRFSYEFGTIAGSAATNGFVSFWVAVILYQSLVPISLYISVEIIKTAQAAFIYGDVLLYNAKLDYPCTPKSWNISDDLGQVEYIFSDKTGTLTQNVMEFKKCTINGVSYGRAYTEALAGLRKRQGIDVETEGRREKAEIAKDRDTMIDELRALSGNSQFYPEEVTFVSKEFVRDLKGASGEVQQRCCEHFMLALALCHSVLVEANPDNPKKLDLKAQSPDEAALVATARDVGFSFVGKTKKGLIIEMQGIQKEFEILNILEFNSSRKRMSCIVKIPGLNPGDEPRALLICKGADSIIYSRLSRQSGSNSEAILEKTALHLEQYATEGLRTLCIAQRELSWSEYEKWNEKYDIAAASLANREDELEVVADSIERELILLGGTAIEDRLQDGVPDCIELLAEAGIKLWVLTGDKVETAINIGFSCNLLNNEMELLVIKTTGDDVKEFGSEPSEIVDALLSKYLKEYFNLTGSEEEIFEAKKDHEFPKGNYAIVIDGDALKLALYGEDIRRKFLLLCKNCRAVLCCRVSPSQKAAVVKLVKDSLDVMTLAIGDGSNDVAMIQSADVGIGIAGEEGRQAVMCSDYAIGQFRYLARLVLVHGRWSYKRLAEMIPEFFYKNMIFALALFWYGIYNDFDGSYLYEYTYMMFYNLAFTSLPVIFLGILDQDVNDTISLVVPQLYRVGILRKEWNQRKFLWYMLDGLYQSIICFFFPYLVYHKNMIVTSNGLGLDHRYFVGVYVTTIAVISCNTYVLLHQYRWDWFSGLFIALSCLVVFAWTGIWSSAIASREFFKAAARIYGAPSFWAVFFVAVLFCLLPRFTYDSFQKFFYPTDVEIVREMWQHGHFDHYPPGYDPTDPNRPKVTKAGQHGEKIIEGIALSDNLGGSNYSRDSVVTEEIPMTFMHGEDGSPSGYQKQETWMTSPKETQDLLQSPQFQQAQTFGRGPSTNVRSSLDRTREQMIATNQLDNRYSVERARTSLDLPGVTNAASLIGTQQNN
row,Variant,effect of a mutation on the interaction
1,R316W,with no effect

# Variants of: B1
# Conditions: with atc4_yeast DNF2, Q12675
# atc4_yeast DNF2, Q12675, sequence (Q12675 whole entry): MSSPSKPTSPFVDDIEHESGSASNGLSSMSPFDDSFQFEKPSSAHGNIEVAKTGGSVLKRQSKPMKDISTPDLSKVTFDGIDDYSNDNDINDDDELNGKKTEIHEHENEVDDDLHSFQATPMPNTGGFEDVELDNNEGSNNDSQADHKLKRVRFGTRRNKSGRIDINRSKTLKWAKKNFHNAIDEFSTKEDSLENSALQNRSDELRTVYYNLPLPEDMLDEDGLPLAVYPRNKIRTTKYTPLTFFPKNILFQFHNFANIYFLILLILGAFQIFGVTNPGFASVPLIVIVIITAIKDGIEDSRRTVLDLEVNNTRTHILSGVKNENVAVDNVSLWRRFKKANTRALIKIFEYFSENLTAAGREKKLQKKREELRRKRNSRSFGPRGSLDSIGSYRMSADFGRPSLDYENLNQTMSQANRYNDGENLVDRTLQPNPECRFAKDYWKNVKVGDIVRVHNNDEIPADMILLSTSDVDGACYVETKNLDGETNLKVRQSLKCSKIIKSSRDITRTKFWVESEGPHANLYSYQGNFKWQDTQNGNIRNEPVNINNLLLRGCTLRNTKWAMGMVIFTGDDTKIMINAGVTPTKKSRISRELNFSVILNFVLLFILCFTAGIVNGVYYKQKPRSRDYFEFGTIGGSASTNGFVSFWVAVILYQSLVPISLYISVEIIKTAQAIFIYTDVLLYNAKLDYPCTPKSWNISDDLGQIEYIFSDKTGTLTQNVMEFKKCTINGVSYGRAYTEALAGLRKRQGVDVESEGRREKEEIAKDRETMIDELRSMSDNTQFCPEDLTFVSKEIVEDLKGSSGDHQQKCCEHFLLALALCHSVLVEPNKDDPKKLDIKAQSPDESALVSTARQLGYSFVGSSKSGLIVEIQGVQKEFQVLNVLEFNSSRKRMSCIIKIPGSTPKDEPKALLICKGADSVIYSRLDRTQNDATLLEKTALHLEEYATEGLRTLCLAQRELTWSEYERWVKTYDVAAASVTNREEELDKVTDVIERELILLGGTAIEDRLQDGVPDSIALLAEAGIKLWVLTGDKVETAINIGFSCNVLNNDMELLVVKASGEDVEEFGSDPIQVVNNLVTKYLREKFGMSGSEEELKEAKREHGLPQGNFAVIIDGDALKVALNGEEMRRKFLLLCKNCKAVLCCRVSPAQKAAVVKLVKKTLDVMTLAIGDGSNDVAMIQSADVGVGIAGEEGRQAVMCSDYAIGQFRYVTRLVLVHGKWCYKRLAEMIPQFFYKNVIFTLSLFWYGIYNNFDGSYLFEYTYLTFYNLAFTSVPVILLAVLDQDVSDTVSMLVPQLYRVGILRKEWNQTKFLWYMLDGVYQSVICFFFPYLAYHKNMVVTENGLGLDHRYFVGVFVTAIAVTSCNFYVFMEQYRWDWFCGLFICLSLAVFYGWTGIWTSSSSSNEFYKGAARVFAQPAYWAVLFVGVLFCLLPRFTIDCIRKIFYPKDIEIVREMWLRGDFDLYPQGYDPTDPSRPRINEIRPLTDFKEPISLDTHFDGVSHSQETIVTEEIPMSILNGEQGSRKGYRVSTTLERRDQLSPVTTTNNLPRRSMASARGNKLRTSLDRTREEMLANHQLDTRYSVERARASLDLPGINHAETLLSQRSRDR
row,Variant,effect of a mutation on the interaction
1,R316W,with no effect
